{"source": "patent US12228572B2", "about": "“Enhanced expression of polo-like kinase 3 (PLK3) in human immunodeficiency virus (HIV)-infected cells” (priority 2021, dated 2025)", "molecules": {"B1": {"name": "PLK3 protein: human PLK3 protein overexpressed from a 3× FLAG-labeled PLK3 protein expression vector (protein, UniProt Q9H4B4 1-646, looked up)", "chain": "MEPAAGFLSPRPFQRAAAAPAPPAGPGPPPSALRGPELEMLAGLPTSDPGRLITDPRSGRTYLKGRLLGKGGFARCYEATDTETGSAYAVKVIPQSRVAKPHQREKILNEIELHRDLQHRHIVRFSHHFEDADNIYIFLELCSRKSLAHIWKARHTLLEPEVRYYLRQILSGLKYLHQRGILHRDLKLGNFFITENMELKVGDFGLAARLEPPEQRKKTICGTPNYVAPEVLLRQGHGPEADVWSLGCVMYTLLCGSPPFETADLKETYRCIKQVHYTLPASLSLPARQLLAAILRASPRDRPSIDQILRHDFFTKGYTPDRLPISSCVTVPDLTPPNPARSLFAKVTKSLFGRKKKSKNHAQERDEVSGLVSGLMRTSVGHQDARPEAPAASGPAPVSLVETAPEDSSPRGTLASSGDGFEEGLTVATVVESALCALRNCIAFMPPAEQNPAPLAQPEPLVWVSKWVDYSNKFGFGYQLSSRRVAVLFNDGTHMALSANRKTVHYNPTSTKHFSFSVGAVPRALQPQLGILRYFASYMEQHLMKGGDLPSVEEVEVPAPPLLLQWVKTDQALLMLFSDGTVQVNFYGDHTKLILSGWEPLLVTFVARNRSACTYLASHLRQLGCSPDLRQRLRYALRLLRDRSPA", "modifications": "full-length 3xFLAG tag", "notes": "human PLK3 protein overexpressed from a 3× FLAG-labeled PLK3 protein expression vector"}}, "key": {"HIV-1 [1]": {"tested_on": "HIV-1", "conditions": "overexpression of the PLK3 protein", "from_the_text": "Specific test steps are as follows. All RNAs were extracted for qPCR to measure the Gag transcription level of HIV-1 (FIG. 4). Cells were collected for a flow cytometry test, and the expression level of an HIV-1 p24 protein was detected by using specific antibodies (FIG. 5)."}, "hepatitis B virus (HBV)": {"tested_on": "hepatitis B virus (HBV)", "experiment": "HBs ELISA of HBV virus particles in supernatant of 293T cells treated with HBV replicator", "format": "cell-based", "conditions": "overexpression in 293T cells, HBV driven by CMV promoter, 48 hours"}, "HIV-1AD8": {"tested_on": "HIV-1AD8", "experiment": "Infectivity of supernatant from transfected 293T cells treated with pAD8, on TZM-bl cells", "format": "cell-based", "conditions": "48 hours after transfection"}, "HIV-1BaL": {"tested_on": "HIV-1BaL", "experiment": "Infectivity of supernatant from transfected 293T cells treated with pBaL, on TZM-bl cells", "format": "cell-based", "conditions": "48 hours after transfection"}, "HIV-189.6": {"tested_on": "HIV-189.6", "experiment": "Infectivity of supernatant from transfected 293T cells treated with p89.6, on TZM-bl cells", "format": "cell-based", "conditions": "48 hours after transfection"}, "HIV-2ROD": {"tested_on": "HIV-2ROD", "experiment": "Infectivity of supernatant from transfected 293T cells treated with pHIV-2ROD, on TZM-bl cells", "format": "cell-based", "conditions": "48 hours after transfection"}, "SIVagm": {"tested_on": "SIVagm", "experiment": "Infectivity of supernatant from transfected 293T cells treated with pSIVagm, on TZM-bl cells", "format": "cell-based", "conditions": "48 hours after transfection"}, "HIV-1 [2]": {"tested_on": "HIV-1"}, "HIV-1 [3]": {"tested_on": "HIV-1", "conditions": "overexpression of the PLK3 protein", "remark": "listed apart in the source"}, "HIV-1 [4]": {"tested_on": "HIV-1", "conditions": "overexpression of the PLK3 protein", "remark": "listed apart in the source"}, "HIV-1 [5]": {"tested_on": "HIV-1", "remark": "listed apart in the source"}}, "note": "Values joined by “and” are separate entries in the source; they are usually repeats but may differ in a detail not shown here. Equal values may be shown once.", "data": [{"molecule": "B1", "values": [{"measurement": "transcription level of virus Gag in cells", "setting": "HIV-1 [1]", "result": "not affected"}, {"measurement": "virus Gag protein level", "setting": "HIV-1 [1]", "result": "obviously reduced"}, {"measurement": "replication and release of the HBV", "setting": "hepatitis B virus (HBV)", "result": "not affected"}, {"measurement": "ability to limit infection with HIV-1AD8", "setting": "HIV-1AD8", "result": "has an ability to limit infection"}, {"measurement": "ability to limit infection with HIV-1BaL", "setting": "HIV-1BaL", "result": "has an ability to limit infection"}, {"measurement": "ability to limit infection with HIV-189.6", "setting": "HIV-189.6", "result": "has an ability to limit infection"}, {"measurement": "ability to limit infection with HIV-2ROD", "setting": "HIV-2ROD", "result": "has an ability to limit infection"}, {"measurement": "ability to limit infection with SIVagm", "setting": "SIVagm", "result": "has an ability to limit infection"}, {"measurement": "HIV infectivity reduced to fraction of original level", "setting": "HIV-1 [2]; 293T cells with vs without PLK3 protein expression, maximum reduction, 48 hours after transfection", "result": "about 1/150"}, {"measurement": "HIV-1 infectivity as fraction of that of the negative control group", "setting": "HIV-1 [2]; different expression amounts, 293T cells, pNL4.3, 48 hours", "result": "1/11 and 1/115"}, {"measurement": "content of core antigen p24 of virus particles in cultured supernatant", "setting": "HIV-1 [3]", "result": "greatly decreased"}, {"measurement": "content of genomic RNA of the virus particles in cultured supernatant", "setting": "HIV-1 [4]", "result": "greatly decreased"}, {"measurement": "ability to block HIV-1 infection", "setting": "HIV-1 [5]", "result": "extremely strong ability to block HIV-1 infection"}]}]}
